Target: T1, ΔN100 y-mtRNAP (yeast mitochondrial RNA polymerase, RPO41) (Saccharomyces cerevisiae, UniProt P13433 101-1351)
T1 sequence (looked up): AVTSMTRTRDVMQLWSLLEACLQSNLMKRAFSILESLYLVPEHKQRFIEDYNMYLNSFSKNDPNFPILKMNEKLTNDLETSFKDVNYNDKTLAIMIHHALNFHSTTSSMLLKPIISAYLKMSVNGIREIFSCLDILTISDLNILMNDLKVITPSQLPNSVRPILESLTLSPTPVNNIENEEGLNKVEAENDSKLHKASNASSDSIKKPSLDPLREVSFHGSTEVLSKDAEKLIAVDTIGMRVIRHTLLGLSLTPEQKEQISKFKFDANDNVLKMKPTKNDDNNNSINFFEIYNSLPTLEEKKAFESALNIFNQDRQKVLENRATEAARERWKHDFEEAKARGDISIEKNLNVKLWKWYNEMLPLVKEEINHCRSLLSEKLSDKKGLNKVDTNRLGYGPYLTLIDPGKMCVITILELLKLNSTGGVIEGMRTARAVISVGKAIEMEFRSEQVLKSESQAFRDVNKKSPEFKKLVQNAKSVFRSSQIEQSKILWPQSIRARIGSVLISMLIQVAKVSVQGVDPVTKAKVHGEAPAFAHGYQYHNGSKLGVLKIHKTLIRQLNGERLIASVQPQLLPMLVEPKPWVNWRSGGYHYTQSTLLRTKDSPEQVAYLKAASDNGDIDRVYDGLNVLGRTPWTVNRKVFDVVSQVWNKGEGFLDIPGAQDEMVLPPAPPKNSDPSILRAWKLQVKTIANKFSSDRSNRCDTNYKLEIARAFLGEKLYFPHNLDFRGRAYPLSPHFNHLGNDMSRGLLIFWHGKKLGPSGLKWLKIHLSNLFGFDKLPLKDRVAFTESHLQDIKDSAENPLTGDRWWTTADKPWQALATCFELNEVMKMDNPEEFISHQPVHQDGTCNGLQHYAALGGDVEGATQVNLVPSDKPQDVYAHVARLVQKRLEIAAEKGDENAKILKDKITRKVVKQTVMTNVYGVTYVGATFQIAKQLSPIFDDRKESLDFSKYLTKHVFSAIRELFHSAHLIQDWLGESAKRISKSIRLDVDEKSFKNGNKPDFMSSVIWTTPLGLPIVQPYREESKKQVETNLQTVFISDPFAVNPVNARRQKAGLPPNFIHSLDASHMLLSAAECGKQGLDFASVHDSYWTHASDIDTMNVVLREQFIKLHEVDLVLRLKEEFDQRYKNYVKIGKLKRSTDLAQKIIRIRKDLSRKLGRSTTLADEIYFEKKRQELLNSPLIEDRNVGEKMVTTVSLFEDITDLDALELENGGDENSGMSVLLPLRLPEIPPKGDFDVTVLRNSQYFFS
Test: cryo-EM structure

binding result: binds
B1: MTF1 (yeast mitochondrial transcription factor) (natural protein, Saccharomyces cerevisiae)
chain: SVPIPGIKDISKLKFFYGFKYLWNPTVYNKIFDKLDLTKTYKHPEELKVLDLYPGVGIQSAIFYNKYCPRQYSLLEKRSSLYKFLNAKFEGSPLQILKRDPYDWSTYSNLIDEERIFVPEVQSSDHINDKFLTVANVTGEGSEGLIMQWLSCIGNKNWLYRFGKVKMLLWMPSTTARKLLARPGMHSRSKCSVVREAFTDTKLIAISDANELKGFDSQCIEEWDPILFSAAEIWPTKGKPIALVEMDPIDFDFDVDNWDYVTRHLMILKRTPLNTVMDSLGHGGQQYFNSRITDKDLLKKCPIDLTNDEFIYLTKLFMEWPFKPDILMDFVDMYQTEHSG

From paper doi:10.1101/2022.09.27.509796 (bioRxiv, 2022)
